Test results as given in paper PMC6153414 (Protein Science : A Publication of the Protein Society, 2018).

Assays:
[1] = target: DotB from the dot/icm system encoded by the L. pneumophila genome (DotBL), wild type (L. pneumophila) (UniProt Q5ZS43); test: SEC-MALS
DotBL = target: T1, DotBL (Legionella pneumophila, UniProt O52185)
T1 construct: gene dotB

| Compound | stoichiometry N [1] | malachite green phosphate release, inhibition after 10 min preincubation (DotBL) |
| --- | --- | --- |
| DotB from the dot/icm system encoded by the L. pneumophila genome (DotBL), wild type (from UniProt Q5ZS43 1-387) (enzyme) | 6 | – |
| Nc1ncnc2c1ncn2[C@@H]1O[C@H](COP(=O)(O)OP(=O)(O)NP(=O)(O)O)[C@@H](O)[C@H]1O [AMP–PNP] | – | the analogue binds and competes with ATP resulting in an inhibition of phosphate release |
